This data set has as its target Dengue virus envelope protein domain III (ED3), on intact DENV serotype 2 virions (Dengue virus 2 (New Guinea C), UniProt P14340 P14340:576-674). Description: inhibition; plaque reduction on Vero cells, DENV2 NGC in human serum, 37 C. The conditions noted are these: protein: virion; tags: none. How it is done: The in vitro inhibition of DENV through standard antiviral, plaque forming EC₅₀ assays was also examined. DENV viral particles were incubated with different concentrations of each inhibitor in human serum and the remaining infectivity was determined by a plaque reduction assay. The dose-dependent inhibition of DENV for the monovalent aptamer and each of the scaffold-aptamer complexes was examined (FIG. 5A). The EC₅₀ value (half maximal effective concentration) of the scaffold for DENV infection inhibition was 2 nM, whereas the EC₅₀ value of the monovalent aptamer was 15 μM (FIG. 5B).
For the in vitro inhibition of DENV (EC₅₀ and plaque assays), vero cells were seeded at a density of 3×10⁵ cells/3 mL MEM culture medium (with 10% FBS) in each well of a 6-well plate 72 h prior to infection. Approximately 200 plaque forming units of DENV serotype 2 (DENV2 NGC), after dilution in Hank's Balanced Salt Solution (HBSS) (GIBCO, Grand Island, N.Y.) including 0.4% (w/v) bovine albumin fraction V (BSA fraction V, GIBCO), were incubated at a 1:1 ratio in human serum (with or without an inhibitor). The mixtures were incubated in a 5% CO₂ incubator at 37° C. for 1 h. Then virus-inhibitor or virus-control mixtures were used directly to infect the confluent monolayer of Vero cells or diluted in MEM+2% FBS before being added onto the Vero cell monolayers. The inoculum was 100 μl/well. […]

Sequence of Dengue virus envelope protein domain III (ED3), on intact DENV serotype 2 virions (P14340 576-674, one chain of several): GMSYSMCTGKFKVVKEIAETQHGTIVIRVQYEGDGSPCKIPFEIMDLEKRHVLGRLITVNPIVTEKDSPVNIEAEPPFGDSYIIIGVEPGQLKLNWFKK

B1: monovalent ED3-binding DNA aptamer (ssDNA)
DNA: GCACCGGGAGGGAGGGAGGGCTTTT
Take B1: the EC50 (commonly the midpoint of the concentration-response curve) came to 15 µM.

(Values after US20230212643, “DNA NANOARCHITECTURES FOR PATTERN-RECOGNIZED […] OF DISEASES” (RENSSELAER POLYTECHNIC INSTITUTE, published 2023).)
